B1: 6His-Bnr1 FH2 (868-1,291) (domain or fragment, S. cerevisiae, UniProt P40450 868-1291, looked up)
chain: DLKPPPTEKRLKQIHWDKVEDIKDTLWEDTFQRQETIKELQTDGIFSQIEDIFKMKSPTKIANKRNAESSIALSSNNGKSSNELKKISFLSRDLAQQFGINLHMFSQLSDMEFVMKVLNCDNDIVQNVNILKFFCKEELVNIPKSMLNKYEPYSQGKDGKAVSDLQRADRIFLELCINLRFYWNARSKSLLTLSTYERDYYDLIFKLQKIDDAISHLNRSPKFKSLMFIITEIGNHMNKRIVKGIKLKSLTKLAFVRSSIDQNVSFLHFIEKVIRIKYPDIYGFVDDLKNIEDLGKISLEHVESECHEFHKKIEDLVTQFQVGKLSKEENLDPRDQIIKKVKFKINRAKTKSELLIGQCKLTLIDLNKLMKYYGEDPKDKESKNEFFQPFIEFLAMFKKCAKENIEKEEMERVYEQRKSLLDMR
B2: MBP-Hof1 F-BAR (1-275) (domain or fragment, S. cerevisiae, UniProt Q05080 1-275, looked up)
chain: MSYSYEACFWDPNDNGVNILLGHISQGIRSCDSMILFFKQRSELEKDYARRLGAITGKLDKDIGTNMDYGKLNETFNVVLSVEKARAQSHSKQSEILFRQIYTDTKAFAANLQARYTTLSGKIERLRMDKFNKKKGCEVLQKKLQDAQIRFRDLQLNENNMIGAKRVEHNKRELLKWESNSQEYKVQLDVLKQEYKASQKFWIHEWAQLSCELQEMENARISFLQSKLQQFATSSMETYILEQTKMDMLTNHLNSFTAADEISTFSKENGTGRLK
B3: MBP-Hof1-FL-6His (natural protein, S. cerevisiae, UniProt Q05080 1-669, looked up)
chain: MSYSYEACFWDPNDNGVNILLGHISQGIRSCDSMILFFKQRSELEKDYARRLGAITGKLDKDIGTNMDYGKLNETFNVVLSVEKARAQSHSKQSEILFRQIYTDTKAFAANLQARYTTLSGKIERLRMDKFNKKKGCEVLQKKLQDAQIRFRDLQLNENNMIGAKRVEHNKRELLKWESNSQEYKVQLDVLKQEYKASQKFWIHEWAQLSCELQEMENARISFLQSKLQQFATSSMETYILEQTKMDMLTNHLNSFTAADEISTFSKENGTGRLKHKTSKGDMNSSANWAQMSSISTTSKKTESYMDNIRKLSSQLKETENKRKLASIDKYEKPLPSPEVTMATQFRNSTPVIRNETKVVANPTLSLRSSPVQLQSNVDDSVLRQKPDKPRPIVGEEQLKPDEDSKNPDEKGLMVHKRNQSLSSPSESSSSNPTDFSHIKKRQSMESMTTSVSSMANSIDDSQRFAKSWNSSNRKRKSMSHLQVPSSASSRSDDGGRTPNSAHNLNEDDYNTRRDTSTSTILFKPPVAVRGTSRGHTHRQSMIMQDSSNPIEDALYEMERIQSSSKPGTKTGNIMDERGVVRDRGITVTLPIVTSEGFPVIEYAKAMYPLIGNEAPGLANFHKGDYLLITEIVNKDWYKGEVYDNDRIDRNHRIGLIPYNFIQLLHQGL
B4: MBP-Hof1-NT-SNAP-549 (domain or fragment, S. cerevisiae, UniProt Q05080 1-340, looked up)
chain: MSYSYEACFWDPNDNGVNILLGHISQGIRSCDSMILFFKQRSELEKDYARRLGAITGKLDKDIGTNMDYGKLNETFNVVLSVEKARAQSHSKQSEILFRQIYTDTKAFAANLQARYTTLSGKIERLRMDKFNKKKGCEVLQKKLQDAQIRFRDLQLNENNMIGAKRVEHNKRELLKWESNSQEYKVQLDVLKQEYKASQKFWIHEWAQLSCELQEMENARISFLQSKLQQFATSSMETYILEQTKMDMLTNHLNSFTAADEISTFSKENGTGRLKHKTSKGDMNSSANWAQMSSISTTSKKTESYMDNIRKLSSQLKETENKRKLASIDKYEKPLPSPEV
modifications: BG-549 SNAP dye on the SNAP tag
B5: C-Bud6 (550-788) (domain or fragment, S. cerevisiae, UniProt P41697 550-788, looked up)
chain: AKNSSNRMYMEKSQTELGDLSDTLLSKVDDLQDVIEIMRKDVAERRSQPAKKKLETVSKDLENAQADVLKLQEFIDTEKPHWKKTWEAELDKVCEEQQFLTLQEELILDLKEDLGKALETFDLIKLCCEEQEKNPSRSKSNPILPIMRPGTFNQVREQVMVAVQSLNPDHDSRVEAIDKAEKMWEMERKLKASNEFDDELENFVGNSNLKKSGGFEEVERIRKQKDEANLRAYFGPGFT

Data set [1] concerns the molecule itself. Kind of data set: negative-stain single-particle EM.
Data set [2] concerns the target B1. Kind of data set: negative-stain single-particle EM.
Data set [3] addresses 6His-Bnr1 FH1-FH2-C (residues 757-1,375) (S. cerevisiae, UniProt P40450 757-1375). Description: negative-stain single-particle EM.
A further data set concerns the target 649-biotin-SNAP-C-Bnr1 (S. cerevisiae, UniProt P40450 757-1375, BG-649-PEG-Biotin on the SNAP tag). Description: TIRF microscopy of labelled protein on formin-coated beads.

649-biotin-SNAP-C-Bnr1, sequence (P40450 757-1375): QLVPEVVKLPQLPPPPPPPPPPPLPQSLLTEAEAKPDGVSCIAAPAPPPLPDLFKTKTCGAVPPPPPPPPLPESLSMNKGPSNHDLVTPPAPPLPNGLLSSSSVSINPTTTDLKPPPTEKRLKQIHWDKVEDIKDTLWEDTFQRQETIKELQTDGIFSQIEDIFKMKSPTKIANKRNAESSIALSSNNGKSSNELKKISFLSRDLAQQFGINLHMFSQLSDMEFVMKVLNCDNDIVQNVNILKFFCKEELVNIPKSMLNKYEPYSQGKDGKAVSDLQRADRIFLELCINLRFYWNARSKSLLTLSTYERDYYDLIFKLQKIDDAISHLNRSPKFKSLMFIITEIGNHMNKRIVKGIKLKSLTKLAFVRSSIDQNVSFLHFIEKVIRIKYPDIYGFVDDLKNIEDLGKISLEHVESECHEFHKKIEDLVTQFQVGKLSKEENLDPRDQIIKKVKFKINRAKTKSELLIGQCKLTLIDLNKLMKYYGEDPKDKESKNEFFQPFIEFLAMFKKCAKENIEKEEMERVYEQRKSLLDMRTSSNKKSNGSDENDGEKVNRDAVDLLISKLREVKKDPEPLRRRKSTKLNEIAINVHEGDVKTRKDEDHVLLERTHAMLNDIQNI
6His-Bnr1 FH1-FH2-C (residues 757-1,375), sequence (P40450 757-1375): as above

For the molecule B1, in data set [1], the “stoichiometry N” value worked out at 2.

Turning to B2, the “stoichiometry N” value in data set [2] is 2 Bnr1 FH2 domains per Hof1 F-BAR domain.

As for B3, the “stoichiometry N” value in data set [3] is 2 C-Bnr1 dimers per Hof1-FL dimer.

In the case of B4, the binding result in the data set with 649-biotin-SNAP-C-Bnr1 is “binds”.

Turning to B5, the binding result with 649-biotin-SNAP-C-Bnr1 is “binds”.

Usually stoichiometry N stands for the number of molecules, sites or subunits per partner or assembly.

The values above are taken from paper PMC6168263 (The Journal of Cell Biology, 2018).
